{
  "source": "paper PMC13253070",
  "key": {"[1]": {"target": "C-terminal domain of FusB, wild type (Pectobacterium carotovorum LMG2410)", "assay": "ITC; 25 °C, SEC Buffer (20 mM Hepes, 140 mM NaCl, pH 8.0), MicroCal iTC200; typically 1.1 mM injectant, 19 x 2 µl, into 85 µM protein in the cell; FusB-CTD constructs normally in the cell; mean of the titrations listed in Table S2"}, "[2]": {"target": "C-terminal domain of FusB (FusB-CTD), wild type (Pectobacterium carotovorum LMG2410)", "assay": "SEC; FusB-CTD alone at varying load (0.2, 0.5, 0.8, 1.2, 2 mg); wild type and variants compared at 0.5 mg loaded; monomer and dimer species"}, "[3]": {"target": "C-terminal domain of FusB, D322N variant (Pectobacterium carotovorum LMG2410)", "assay": "ITC; competition, apparent: SpFer injected into the cell holding FusB-CTD (wild type or D322N) pretitrated with ~2.5 M excess of FusANTR-GFP (wild type or D53A); 25 °C, SEC Buffer"}, "[4]": {"target": "C-terminal domain of FusB (FusB-CTD), wild type (Pectobacterium carotovorum LMG2410)", "assay": "ITC; competition, sequential titration: SpFer injected into the cell holding FusB-CTD (wild type or D322N) pretitrated with ~2.5 M excess of FusANTR-GFP (wild type or D53A); 25 °C, SEC Buffer; apparent"}, "[5]": {"target": "FusB-CTD R241K (Pectobacterium carotovorum LMG2410)", "assay": "ITC; 25 °C, SEC Buffer (20 mM Hepes, 140 mM NaCl, pH 8.0); typically 1.1 mM analyte injected 19 x 2 μl into 85 μM ligand in the cell; FusB-CTD constructs normally in the cell, SpFer and FusANTR-GFP constructs as injectants"}, "[6]": {"target": "FusB-CTD D322N (Pectobacterium carotovorum LMG2410)", "assay": "ITC; 25 °C, SEC Buffer (20 mM Hepes, 140 mM NaCl, pH 8.0); typically 1.1 mM analyte injected 19 x 2 μl into 85 μM ligand in the cell; FusB-CTD constructs normally in the cell, SpFer and FusANTR-GFP constructs as injectants"}, "[7]": {"target": "C-terminal domain of FusB, R242K variant (Pectobacterium carotovorum LMG2410)", "assay": "ITC; 25 °C, SEC Buffer (20 mM Hepes, 140 mM NaCl, pH 8.0), MicroCal iTC200; typically 1.1 mM injectant, 19 x 2 µl, into 85 µM protein in the cell; FusB-CTD constructs normally in the cell; mean of the titrations listed in Table S2"}, "[8]": {"target": "C-terminal domain of FusB (FusB-CTD), wild type (Pectobacterium carotovorum LMG2410)", "assay": "ITC; 25 °C, SEC Buffer (20 mM Hepes, 140 mM NaCl, pH 8.0); typically 1.1 mM analyte injected 19 x 2 μl into 85 μM ligand in the cell; FusB-CTD constructs normally in the cell, SpFer and FusANTR-GFP constructs as injectants"}, "[9]": {"target": "FusB-CTD R241A (Pectobacterium carotovorum LMG2410)", "assay": "ITC; 25 °C, SEC Buffer (20 mM Hepes, 140 mM NaCl, pH 8.0); typically 1.1 mM analyte injected 19 x 2 μl into 85 μM ligand in the cell; FusB-CTD constructs normally in the cell, SpFer and FusANTR-GFP constructs as injectants"}, "[10]": {"target": "C-terminal domain of FusB, D322N variant (Pectobacterium carotovorum LMG2410)", "assay": "ITC; 25 °C, SEC Buffer (20 mM Hepes, 140 mM NaCl, pH 8.0), MicroCal iTC200; typically 1.1 mM injectant, 19 x 2 µl, into 85 µM protein in the cell; FusB-CTD constructs normally in the cell; mean of the titrations listed in Table S2"}},
  "note": "pKd: −log10 of the molar value.",
  "data": [
    {"substance": "Spinacia oleracea (spinach) ferredoxin 1 with a C-terminal 6His-tag (from UniProt P00221 51-147) (natural protein)", "values": [
      {"measurement": "pKd", "setting": "[1]", "result": 4.74}
    ]},
    {"substance": "C-terminal domain of FusB (FusB-CTD), wild type (domain or fragment)", "values": [
      {"measurement": "stoichiometry N", "setting": "[2]", "result": 2}
    ]},
    {"substance": "Spinacia oleracea (spinach) ferredoxin 1, recombinant, tag-free (from UniProt P00221 51-147) (natural protein)", "values": [
      {"measurement": "pKd", "setting": "[3]", "result": 4.75},
      {"measurement": "pKd", "setting": "[1]", "result": 5.11}
    ]},
    {"substance": "Spinacia oleracea (spinach) ferredoxin 1 (SpFer), wild type, recombinant (from UniProt P00221 51-147) (natural protein)", "values": [
      {"measurement": "apparent KD with ~2.5 M excess of FusANTR-GFP", "setting": "[4]", "result": 22.3, "unit": "µM"},
      {"measurement": "pKd", "setting": "[5]", "result": 4.59},
      {"measurement": "pKd", "setting": "[6]", "result": 5.13}
    ]},
    {"substance": "GFP fusion construct containing the N-terminal region (residues 21-66) of FusA (domain or fragment)", "values": [
      {"measurement": "pKd", "setting": "[7]", "result": 4.48},
      {"measurement": "stoichiometry N", "setting": "[7]", "result": "< 0.2"},
      {"measurement": "pKd", "setting": "[1]", "result": 4.51},
      {"measurement": "stoichiometry N", "setting": "[1]", "result": "< 0.2"}
    ]},
    {"substance": "SpFer F64Y (natural protein)", "values": [
      {"measurement": "pKd", "setting": "[8]", "result": 4.51}
    ]},
    {"substance": "GFP fusion construct containing the N-terminal region (residues 21-66) of FusA (FusANTR-GFP), wild type (from UniProt C6DG80 21-66) (domain or fragment)", "values": [
      {"measurement": "pKd", "setting": "[5]", "result": 4.60},
      {"measurement": "pKd", "setting": "[9]", "result": 4.41},
      {"measurement": "pKd", "setting": "[6]", "result": 5.03}
    ]},
    {"substance": "GFP fusion construct containing the N-terminal region (residues 21-66) of FusA, D53A variant (domain or fragment)", "values": [
      {"measurement": "pKd", "setting": "[10]", "result": 4.50}
    ]},
    {"substance": "FusANTR-GFP D53A (from UniProt C6DG80 21-66) (domain or fragment)", "values": [
      {"measurement": "pKd", "setting": "[8]", "result": 4.50},
      {"measurement": "pKd", "setting": "[6]", "result": 4.50}
    ]},
    {"substance": "SpFer E93A/E94A (from UniProt P00221 51-147) (natural protein)", "values": [
      {"measurement": "pKd", "setting": "[8]", "result": 4.50}
    ]}
  ]
}
